Legend:
[1] = molecular target: octameric (AqpZ-ALFA)4(nB)4 complex (E. coli) (UniProt P60844); assay: cryo-EM structure; AqpZ-ALFA incubated with five-fold molar excess of nB in C8E4, complex purified (StrepTrap, Superdex 200), 10 mg/mL, 5-fold molar excess of 18:1 cardiolipin (TOCDL); prepared at room temperature, grid at 5 °C; D4 symmetry, 1.9 Å
[2] = molecular target: the molecule itself; assay: as above

Chain of octameric (AqpZ-ALFA)4(nB)4 complex (P60844 whole entry, looked up, one chain of several): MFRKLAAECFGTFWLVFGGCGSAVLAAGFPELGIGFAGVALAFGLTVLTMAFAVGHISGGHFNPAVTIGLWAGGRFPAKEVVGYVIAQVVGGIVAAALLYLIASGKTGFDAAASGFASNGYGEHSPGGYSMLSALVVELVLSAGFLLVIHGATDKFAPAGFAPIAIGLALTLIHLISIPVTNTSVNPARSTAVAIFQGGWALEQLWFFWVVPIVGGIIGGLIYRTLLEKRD

Molecule | stoichiometry N [1] | stoichiometry N [2]
octameric (AqpZ-ALFA)4(nB)4 complex (from UniProt P60844 1-227) | 2 | 
AqpZ-ALFA (E. coli aquaporin Z with the ALFA tag grafted onto its C-terminus, flexible linker and Strep-tag II) (other, Aquaporin Z (AqpZ), E. coli, UniProt P60844; from the start up to the printed C-terminal residues IYRTLL; the last residues of the natural protein are replaced by the graft; followed by aswshpqfek (Strep-tag II, written as a tag); Tetramer; also called AqpZ-ALFA-St; source: E. coli BL21-A1, purified (octyl glucoside extraction of membranes, StrepTrap, Superdex 200 in C8E4); not shown: Strep-tag …) MFRKLAAECFGTFWLVFGGCGSAVLAAGFPELGIGFAGVALAFGLTVLTMAFAVGHISGGHFNPAVTIGLWAGGRFPAKEVVGYVIAQVVGGIVAAALLYLIASGKTGFDAAASGFASNGYGEHSPGGYSMLSALVVELVLSAGFLLVIHGATDKFAPAGFAPIAIGLALTLIHLISIPVTNTSVNPARSTAVAIFQGGWALEQLWFFWVVPIVGGIIGGLIYRTLLRASRLEEELRRRLTEPGGGPG |  | 4

— PMC10867769, “Grafting the ALFA tag for structural studies of aquaporin Z” (Journal of Structural Biology: X, 2024)
